Experimental data published in the DeepSol protein solubility set.

Assay: soluble on expression in E. coli; label from the status in PepcDB or PDB records

Soluble on expression in E. coli, not soluble:
MGSDKIHHHHHHADKHDHKGQTPLVEVDGNFLYKEDLQAVLPAGLSKDDSLLFAEHYVRSWVEDVLLFNQAQSNIPDNGEIDKLVENYRKALIMHTYQQELISQKLSGEIPEQEIADYYEKNKELFKLDRPLMKGLFIKVPLTAPQLGNVRKWYKTETQDAVEHLEKYSLQNAVKYEYFYDKWVRVADVLDMIPLKAESPEAYMDKNRHIELKDTAFYYFLNISDFRVAGEQEPYEFAQPKVKDMLVNIKRVDFMKQVKDDLYERAVKRKKIINY
MGSDKIHHHHHHAEITLLKQDPQAGDPLSRLNFTVGGSIRPQFNMMTGDGDKGSYKRNGFDGGTRFRFAADYYLFDDISWISYYELGVNIPALFDWDNHYAEGANNTTRRMLYTGLKSDTWGTLTYGQQNSIYYDVVGVKTDIWDYDMIGQAPGNGINGDYDGSYRSRNMLKYKKTVGDVDLYGSYLFEDSEYLPGNGLRYKRKGGGSVGADYHIMKDLTWGTAWNYTRAEMRDPSSADSKTYDQNIVGTALSWTPDNWTFSFGGGWYQNFLTTKKTDVHNYFAGDAWGIEYFAGYKFPINQYAVKSIQPYFMGDRLEYVNGRNYQRIDNGLGISFQLDYGFRVDYEHVFTSSTDNLGDMNLVRLRYDF
MGSDKIHHHHHHAELAELFEVSVRTIYRDIETINRAGIPIVTSQGSGGGIGIMETYRLEREWLKEEELFAIASALQSVSSMYEPVSHSTAYQKIKHLIPEQSTQAFKHQTEKWFIDMTAWGHTEDQKTLREKISAAIDRLLTISFTYTSASGETLLRETEPYTLVCKAGHWYLYAYCLVRNDFRFFKLNRMKDLAILHQTFIRKDIQLDTLPWDKSWYQKDRLTELVILVQPSARQRIGEWFGYDVLHCCEEDEICQAVISLPEDQWLIGFLLQFGKDIEVLQPLHIRDKVKETIHHMQKIYET
MGSDKIHHHHHHAGLPDNLTPVGAERAASPDGRIPAWQGGLSTAQQRLGDNGTPLDPFADEQPLYRITAANYRQYRGQLTDGQVALLKRFPASLSLPVYPTHRSVAVPDAVAASAARNAEQAQLDDQGNGVRGFTGVIAFAQPTNGLEVIWNHLTRHRNVSYSLSSDSVTPLKNGRFVLMSARQEVARPEGLANLGAGNVLYYFTYRMTAPSRLAGDAMVVHETLDQVAEPRLSWVYSASQRRVRRAPNIAYDTTGPGTAGLRTADSRDMFNGAPDRYDWKLLGKQALHVPYNCYRLASPELRYVDLIKPGHIDPAPTRYELHRVWVVEATLKPGAQHIYAKRRFYLDEDTWAILETDSYDARGELWRTSQAHGFFHPSGQVAVNAMEITYDLKSGRYHASGLINEQRRPFAFNVRTSLSYFSPGALRSFGVR
MGSDKIHHHHHHANSTNTIVSTSNMASTAYTRKSATGWTYNLGGTATNMTFGKKTHYLKNYPNTTWHATKKRYIIKKNGVKYLYYYVTNGRKTAAGWIWHGYLQKKSYAHTATTTSSTGTGTYDSILKAAKTQLGKPYAYGGNGPSAFDCSGFTKYVFNQAIGQTLPRTAQAQYDSYTHVSAANAKAGDLIFFGTSASNITHCGIYLGNHKMIDAQLNGVITEATNVSWWHTVGYSRPATLS
MGSDKIHHHHHHAQKKDFSYKFYGQIRTDLYYNSRANEETVDGLFYMYPKDEVFDSNGRDLNATANGSFYTLYTRLGLDVKGPKLGRAMTSAKVEADFRGSGTSYSTIRLRHAYLNLDWGRSALLLGQTWHPLFGDVSPQILNLSVGAPFQPFSRAPQIRYRYTHKGFQLTGAAIWQSQYLSQGIVGKSQTYIKNSCVPEFYLGLDYKANGWIAGAGIELLSLKPRTESKVEDQVYKVNERITTLSYEGHVKYSNKDWFVGAKTVLGSNLTQTSMLGGFGIKSIDNRTGEQKYTPIRVSSSWLNVVYGQKWKPGIFLGYVKNMGTSDALASNQVYGTGTNVDQVVTAGAELTYNVNHWKFGVEYTYTSAAYGSLYLKNGKIIDTHSVGNNRIVGVAMFMF
